Key:
[1] = biological target: GST-C92Myc:Max heterodimer (Homo sapiens, UniProt P01106;P61244-2 P01106:363-454,P61244-2:1-151); assay: EMSA; heterodimer favored over Max:Max; settings: tags: GST on Myc; label: 32P
Experimental: The ability of Mad-1 to bind DNA and interact with Max and Myc was examined by the electrophoretic mobility shift assay. […] Non-fusion GST protein was used as a control. […] As a control, the specificity of the electrophoretic mobility shift was assayed by including antibodies to either Max (αMax), GST (αGST), or Myc (αMyc) to the binding reaction. The activity of these antibodies was inhibited by adding the appropriate immunoglobulin to the binding reaction ("+block"). The lanes marked "–" had no additional protein present in the binding reaction.
The ability of Mad-1 to bind DNA and interact with Max and Myc was examined by the EMSA. […] In each experiment the specificity of the mobility shift was assayed by including antibodies to either Max((xMax), GST((xGST) or Myc ((xMyc) were added to the binding reaction.

[2] = biological target: c-Myc:Max heterodimer (Homo sapiens, UniProt P01106-1;P61244-2 P01106-1:1-439,P61244-2:1-151); assay: EMSA; supershifted by anti-Myc and anti-Max; 3 mM MgCl2, 50 mM KCl, RT; 5-fold excess cold CM-1 competes; settings: label: 32P
Experimental: The DNA-binding reaction was allowed to proceed at room temperature for 10 minutes.
FIG. 7A: the ability of in vitro translated Myc and Max proteins to bind to the CM-1 oligonucleotide (CACGTG core consensus) was assessed by electrophoretic mobility shift assay. […] Lysates were incubated with ^32P-labeled CM-1 prior to resolution in a 5 percent acrylamide gel. In experiments where antibodies were added, affinity purified antibody (1 mg) was added after formation of the nucleoprotein complex to minimize steric interference. To block the antibody effect, cognate immunogen (1 mg) was added.

[3] = biological target: Mad-1-His6 full length (Homo sapiens, UniProt Q05195 SEQ:1-221); assay: EMSA; no Max present; settings: tags: C-terminal His6 (pET11D); label: 32P
[4] = biological target: c-Myc deltaN100:Max (Homo sapiens, UniProt P01106-1;P61244-2 P01106-1:101-439,P61244-2:1-151, c-Myc deletion of N-terminal 100 aa); assay: EMSA; settings: label: 32P
Chain of c-Myc deltaN100:Max (P01106 116-454, stated change not applied, chain 1 of 2): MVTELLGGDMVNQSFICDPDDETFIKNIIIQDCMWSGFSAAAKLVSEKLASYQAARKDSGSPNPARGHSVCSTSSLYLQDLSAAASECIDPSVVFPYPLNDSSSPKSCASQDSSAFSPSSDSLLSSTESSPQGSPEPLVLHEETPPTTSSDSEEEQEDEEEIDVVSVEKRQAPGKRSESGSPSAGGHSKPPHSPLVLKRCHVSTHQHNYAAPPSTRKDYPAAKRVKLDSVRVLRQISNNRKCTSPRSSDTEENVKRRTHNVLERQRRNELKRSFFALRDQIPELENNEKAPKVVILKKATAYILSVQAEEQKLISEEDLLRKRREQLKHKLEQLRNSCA
Chain of c-Myc deltaN100:Max (P61244 other isoform, or with tags, fused parts or gaps c-Myc deletion of N-terminal 100 aa | mutant, chain 2 of 2): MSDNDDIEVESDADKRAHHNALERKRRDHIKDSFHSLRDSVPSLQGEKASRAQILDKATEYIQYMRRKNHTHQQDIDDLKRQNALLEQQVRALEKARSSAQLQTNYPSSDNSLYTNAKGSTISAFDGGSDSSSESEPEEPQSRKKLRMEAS
Experimental: FIG. 7A: the ability of in vitro translated Myc and Max proteins to bind to the CM-1 oligonucleotide (CACGTG core consensus) was assessed by electrophoretic mobility shift assay. […] Lysates were incubated with ^32P-labeled CM-1 prior to resolution in a 5 percent acrylamide gel. In experiments where antibodies were added, affinity purified antibody (1 mg) was added after formation of the nucleoprotein complex to minimize steric interference. To block the antibody effect, cognate immunogen (1 mg) was added. […] CM-1 oligonucleotide alone (probe) and unprogrammed reticulocyte lysate (RL) served as background controls. FIG. 7B: The specificity of the Myc-Max shift was tested by competition with 5-, 50-, and 500-fold excess of unlabeled oligonucleotide. […] FIG. 7C: Requirements for the formation of a nucleoprotein complex. Various c-Myc mutants (see FIG. 4 discussion for abbreviations) were assayed for their ability to bind CM-1 in association with Max.
To ascertain whether the association of Myc and Max in a nucleoprotein complex required the same sequences, some of the c-Myc mutants were examined for their ability to bind to CM-1 in a complex with Max.

Chain of GST-C92Myc:Max heterodimer (P01106 363-454, chain 1 of 2): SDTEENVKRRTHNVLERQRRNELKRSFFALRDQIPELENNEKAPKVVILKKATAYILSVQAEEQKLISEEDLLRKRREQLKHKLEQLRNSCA
Chain of GST-C92Myc:Max heterodimer (P61244 other isoform, or with tags, fused parts or gaps, chain 2 of 2): as the sequence (P61244 other isoform, or with tags, fused parts or gaps c-Myc deletion of N-terminal 100 aa | mutant, chain 2 of 2) above
Chain of c-Myc:Max heterodimer (P01106 16-454, chain 1 of 2): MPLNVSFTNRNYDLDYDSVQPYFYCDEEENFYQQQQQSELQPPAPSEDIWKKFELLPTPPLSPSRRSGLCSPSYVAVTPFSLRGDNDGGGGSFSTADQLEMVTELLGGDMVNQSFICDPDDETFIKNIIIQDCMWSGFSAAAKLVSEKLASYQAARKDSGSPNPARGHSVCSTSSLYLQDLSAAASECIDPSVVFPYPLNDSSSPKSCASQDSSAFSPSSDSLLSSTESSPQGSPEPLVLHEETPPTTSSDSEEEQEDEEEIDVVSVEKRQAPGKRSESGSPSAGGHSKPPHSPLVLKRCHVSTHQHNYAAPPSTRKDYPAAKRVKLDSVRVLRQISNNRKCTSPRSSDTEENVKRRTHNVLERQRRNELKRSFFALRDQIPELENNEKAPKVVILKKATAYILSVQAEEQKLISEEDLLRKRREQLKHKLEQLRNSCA
Chain of c-Myc:Max heterodimer (P61244 other isoform, or with tags, fused parts or gaps, chain 2 of 2): as the sequence (P61244 other isoform, or with tags, fused parts or gaps c-Myc deletion of N-terminal 100 aa | mutant, chain 2 of 2) above
Chain of Mad-1-His6 full length (Q05195 whole entry): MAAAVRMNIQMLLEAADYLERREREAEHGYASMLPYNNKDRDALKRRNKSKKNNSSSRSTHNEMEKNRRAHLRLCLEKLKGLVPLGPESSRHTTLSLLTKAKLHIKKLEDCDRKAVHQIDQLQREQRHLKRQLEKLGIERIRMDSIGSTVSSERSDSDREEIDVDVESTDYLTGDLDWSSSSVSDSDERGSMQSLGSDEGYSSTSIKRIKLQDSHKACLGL

B1: CM-1 (dsDNA)
DNA 1: CCCCCACCACGTGGTGCCTGA
DNA 2: TCAGGCACCACGTGGTGGGGG
[1]
  binding result: binds
[2]
  binding result: binds
[3]
  binding result: no binding
[4]
  binding result: binds
